Target: T1, FcγRIIIa (human, UniProt P08637 17-208)
T1 construct: extracellular domain; also called 3a; FcγRIIIa extracellular domain
Experiment: SPR (Biacore);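 note: antibody variants captured on an SPR sensor chip, with FcγRIIIa passed over as analyte in HBS-EP+ buffer at 25 °C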

T1 sequence (P08637 other isoform, or with tags, fused parts or gaps): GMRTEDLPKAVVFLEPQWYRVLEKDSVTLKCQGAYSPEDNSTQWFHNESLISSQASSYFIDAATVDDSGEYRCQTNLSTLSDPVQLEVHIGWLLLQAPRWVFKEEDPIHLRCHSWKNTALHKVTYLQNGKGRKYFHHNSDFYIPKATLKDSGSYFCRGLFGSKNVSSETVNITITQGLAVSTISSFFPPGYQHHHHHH

Row | Binder | He/Con 3a
1 | GpH7-A5/GpH7-B3 variant P271_04F/GpL16-k0 (antibody, human IgG1, kappa, copies: 1 + 1 + 2) heavy 1: not shown heavy 2: not shown light: DIVMTQSPLSLPVTPGEPASISCQASESLVHSNRNTYLHWYLQKPGQSPQLLIYKVSNRFSGVPDRFSGSGSGTDFTLKISRVEAEDVGVYYCSQNTHVPPTFGQGTKVEIERTVAAPSVFIFPPSDEQLKSGTASVVCLLNNFYPREAKVQWKVDNALQSGNSQESVTEQDSKDSTYSLSSTLTLSKADYEKHKVYACEVTHQGLSSPVTKSFNRGEC | 65.6 % of GpH7-A5/GpH7-B3/GpL16-k0
2 | GpH7-A5/GpH7-B3 variant P271_03V/GpL16-k0 (antibody, human IgG1, kappa, copies: 1 + 1 + 2) heavy 1: not shown heavy 2: not shown light: DIVMTQSPLSLPVTPGEPASISCQASESLVHSNRNTYLHWYLQKPGQSPQLLIYKVSNRFSGVPDRFSGSGSGTDFTLKISRVEAEDVGVYYCSQNTHVPPTFGQGTKVEIERTVAAPSVFIFPPSDEQLKSGTASVVCLLNNFYPREAKVQWKVDNALQSGNSQESVTEQDSKDSTYSLSSTLTLSKADYEKHKVYACEVTHQGLSSPVTKSFNRGEC | 73.5 % of GpH7-A5/GpH7-B3/GpL16-k0
3 | GpH7-A5/GpH7-B3 variant P271_06M/GpL16-k0 (antibody, human IgG1, kappa, copies: 1 + 1 + 2) heavy 1: not shown heavy 2: not shown light: DIVMTQSPLSLPVTPGEPASISCQASESLVHSNRNTYLHWYLQKPGQSPQLLIYKVSNRFSGVPDRFSGSGSGTDFTLKISRVEAEDVGVYYCSQNTHVPPTFGQGTKVEIERTVAAPSVFIFPPSDEQLKSGTASVVCLLNNFYPREAKVQWKVDNALQSGNSQESVTEQDSKDSTYSLSSTLTLSKADYEKHKVYACEVTHQGLSSPVTKSFNRGEC | 74 % of GpH7-A5/GpH7-B3/GpL16-k0
4 | GpH7-A5/GpH7-B3 variant P271_08L/GpL16-k0 (antibody, human IgG1, kappa, copies: 1 + 1 + 2) heavy 1: not shown heavy 2: not shown light: DIVMTQSPLSLPVTPGEPASISCQASESLVHSNRNTYLHWYLQKPGQSPQLLIYKVSNRFSGVPDRFSGSGSGTDFTLKISRVEAEDVGVYYCSQNTHVPPTFGQGTKVEIERTVAAPSVFIFPPSDEQLKSGTASVVCLLNNFYPREAKVQWKVDNALQSGNSQESVTEQDSKDSTYSLSSTLTLSKADYEKHKVYACEVTHQGLSSPVTKSFNRGEC | 74.5 % of GpH7-A5/GpH7-B3/GpL16-k0

The next lines start with the values.

Row | He/Con 3a | Binder
5 | 79.8 % of GpH7-A5/GpH7-B3/GpL16-k0 | GpH7-A5/GpH7-B3 variant P271_13S/GpL16-k0 (antibody, human IgG1, kappa, copies: 1 + 1 + 2) heavy 1: not shown heavy 2: not shown light: DIVMTQSPLSLPVTPGEPASISCQASESLVHSNRNTYLHWYLQKPGQSPQLLIYKVSNRFSGVPDRFSGSGSGTDFTLKISRVEAEDVGVYYCSQNTHVPPTFGQGTKVEIERTVAAPSVFIFPPSDEQLKSGTASVVCLLNNFYPREAKVQWKVDNALQSGNSQESVTEQDSKDSTYSLSSTLTLSKADYEKHKVYACEVTHQGLSSPVTKSFNRGEC
6 | 82.5 % of GpH7-A5/GpH7-B3/GpL16-k0 | GpH7-A5/GpH7-B3 variant P331_02A/GpL16-k0 (antibody, human IgG1, kappa, copies: 1 + 1 + 2) heavy 1: not shown heavy 2: not shown light: DIVMTQSPLSLPVTPGEPASISCQASESLVHSNRNTYLHWYLQKPGQSPQLLIYKVSNRFSGVPDRFSGSGSGTDFTLKISRVEAEDVGVYYCSQNTHVPPTFGQGTKVEIERTVAAPSVFIFPPSDEQLKSGTASVVCLLNNFYPREAKVQWKVDNALQSGNSQESVTEQDSKDSTYSLSSTLTLSKADYEKHKVYACEVTHQGLSSPVTKSFNRGEC
7 | 84.6 % of GpH7-A5/GpH7-B3/GpL16-k0 | GpH7-A5/GpH7-B3 variant P271_19Q/GpL16-k0 (antibody, human IgG1, kappa, copies: 1 + 1 + 2) heavy 1: not shown heavy 2: not shown light: DIVMTQSPLSLPVTPGEPASISCQASESLVHSNRNTYLHWYLQKPGQSPQLLIYKVSNRFSGVPDRFSGSGSGTDFTLKISRVEAEDVGVYYCSQNTHVPPTFGQGTKVEIERTVAAPSVFIFPPSDEQLKSGTASVVCLLNNFYPREAKVQWKVDNALQSGNSQESVTEQDSKDSTYSLSSTLTLSKADYEKHKVYACEVTHQGLSSPVTKSFNRGEC
8 | 62.7 % of GpH7-A5/GpH7-B3/GpL16-k0 | GpH7-A5/GpH7-B3 variant P271_15Y/GpL16-k0 (antibody, human IgG1, kappa, copies: 1 + 1 + 2) heavy 1: not shown heavy 2: not shown light: DIVMTQSPLSLPVTPGEPASISCQASESLVHSNRNTYLHWYLQKPGQSPQLLIYKVSNRFSGVPDRFSGSGSGTDFTLKISRVEAEDVGVYYCSQNTHVPPTFGQGTKVEIERTVAAPSVFIFPPSDEQLKSGTASVVCLLNNFYPREAKVQWKVDNALQSGNSQESVTEQDSKDSTYSLSSTLTLSKADYEKHKVYACEVTHQGLSSPVTKSFNRGEC
9 | 77.8 % of GpH7-A5/GpH7-B3/GpL16-k0 | GpH7-A5/GpH7-B3 variant P271_20W/GpL16-k0 (antibody, human IgG1, kappa, copies: 1 + 1 + 2) heavy 1: not shown heavy 2: not shown light: DIVMTQSPLSLPVTPGEPASISCQASESLVHSNRNTYLHWYLQKPGQSPQLLIYKVSNRFSGVPDRFSGSGSGTDFTLKISRVEAEDVGVYYCSQNTHVPPTFGQGTKVEIERTVAAPSVFIFPPSDEQLKSGTASVVCLLNNFYPREAKVQWKVDNALQSGNSQESVTEQDSKDSTYSLSSTLTLSKADYEKHKVYACEVTHQGLSSPVTKSFNRGEC
10 | 52.7 % of GpH7-A5/GpH7-B3/GpL16-k0 | GpH7-A5/GpH7-B3 variant P329_10E/GpL16-k0 (antibody, human IgG1, kappa, copies: 1 + 1 + 2) heavy 1: not shown heavy 2: not shown light: DIVMTQSPLSLPVTPGEPASISCQASESLVHSNRNTYLHWYLQKPGQSPQLLIYKVSNRFSGVPDRFSGSGSGTDFTLKISRVEAEDVGVYYCSQNTHVPPTFGQGTKVEIERTVAAPSVFIFPPSDEQLKSGTASVVCLLNNFYPREAKVQWKVDNALQSGNSQESVTEQDSKDSTYSLSSTLTLSKADYEKHKVYACEVTHQGLSSPVTKSFNRGEC
11 | 59.2 % of GpH7-A5/GpH7-B3/GpL16-k0 | GpH7-A5/GpH7-B3 variant P271_14T/GpL16-k0 (antibody, human IgG1, kappa, copies: 1 + 1 + 2) heavy 1: not shown heavy 2: not shown light: DIVMTQSPLSLPVTPGEPASISCQASESLVHSNRNTYLHWYLQKPGQSPQLLIYKVSNRFSGVPDRFSGSGSGTDFTLKISRVEAEDVGVYYCSQNTHVPPTFGQGTKVEIERTVAAPSVFIFPPSDEQLKSGTASVVCLLNNFYPREAKVQWKVDNALQSGNSQESVTEQDSKDSTYSLSSTLTLSKADYEKHKVYACEVTHQGLSSPVTKSFNRGEC
